Experimental data: the nanobody polyreactivity screen of Harvey et al. (2022)

test: yeast display, Sf9 membrane polyspecificity reagent, FACS + sequencing; frameworks hold sequencing errors
In short: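 Polyreactivity labels are assigned by the sorting gate from which each nanobody was recovered. The gates were low and high (top ~1%), set on anti-HA fluorescence for expression and streptavidin fluorescence for reagent binding. Before sorting, galactose-induced (36–48 hours) yeast display cells were stained for 1 hour at 4 °C with 10% biotinylated, detergent-solubilized Sf9 membrane reagent.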

Sequence	polyreactivity (PSR sort gate)
QVQLVESGGGLVQAGGSLRLSCAATGLFDVYAMGGYRQAPRKERELVAAISSDGSTYYADSVKGRFTISRDNAKNTVYLQMNSLKPEDTAVYYCNADTSGSPYLQGYVGYGYWGQGTQVTVSS	low polyreactivity
QVQLVESGGGLVQAGGSLRLSCAATGLIFGWYAMGWYRQAPGKERELVAAISYSGGRTYYADSVKGRFTISRDNAKNTVYLQMNSLKPEDSAVYYCAAIVLQLRGRGYEYWGQGTQVTVSS	high polyreactivity
QVQLVESGGGLVQAGGSLRLSCAATGRIFGGYPMGWYRQAPGKERELVAVISGRGGSTYYADSVKGRFTISRDNAKNTVYLQMNSLIPEDTAVYYCAAVGYYAWTFGYDYWGQGTQVTVSS	high polyreactivity
QVQLVESGGGLVQAGGSLRLSCAATGRIFLKYTMGWYRQAPGKERELVAAISRGRSTYYADSVKGRFTISRDNAMNTVYLQMNSLKPEDTAVYYFAATSYRRTGYYYWGQGTQVTVSS	high polyreactivity
QVQLVESGGGLVQAGGSLRLSCAATGRIFYGYTMGWYRQPPGKERELVAAINFNAGRTYYADSVKGRFTISRDNAKNTVYLQMNSLKPEDTAVYYCAAEGRFGRKYGYWGQGTQVTVSS	low polyreactivity
QVQLVESGGGLVQAGGSLRLSCAATGRTFLYNAMGWYRQAPGKERELVAAISFDDGSTYYADSVKGRFTISRDNAKNTVYLQMNSLKPEDPAVYYCAAEYLYVGDSQAYNQYEYWGQGTQVTVSS	low polyreactivity
QVQLVESGGGLVQAGGSLRLSCAATGRTFVSNAMGWYRQAPGKERELVAAISSSTGSTYYADSVKGRFTISRDNAKNTVYLQMNSLKPEDTAVYYCAAYLLGRSPYDYWGQGTQVTVSS	low polyreactivity
QVQLVESGGGLVQAGGSLRLSCAATGSIFNYYAMGWYRQAPGKERELVATISRGGRTNYADSVKGRFTISRDNAKNTVYLQMNRLKAEETAVYYCAADRYYTYNVYYFSSFVYWGHGTQVTVSS	high polyreactivity
QVQLVESGGGLVQAGGSLRLSCAATGSIFRYYAMGWYRQAPGKERELVAAISWSGGSTYYSDSVKGRFTISRDNAKNTVYLQMNSLKPEDTAVYYCNVKRYGGRSDYWGQGSQVTVSS	high polyreactivity
QVQLVESGGGLVQAGGSLRLSCAATGSIFYGNAMGWYRQAPGKERELVAAISWGAGSTYYADSVKGRFTISRDNAKNTVYLQMNSLKPEDTAVYYCNTLQITGWYDYWGQGTQVTVSS	high polyreactivity
QVQLVESGGGLVQAGGSLRLSCAATGSIFYVNAMGWYRQAPGKERELVAVNADSVKGRFTISRDNAKNTVYLQMNSLKPEDTAVYYCAAGVNSTTRIYDYWGQGTQVTVSS	low polyreactivity
QVQLVESGGGLVQAGGSLRLSCAATGSNFINYAMGWYRQAPGKERELVAAYADSVKGRFTISRDNAKNTVYLQMNSLKPEDTAVYYCNAVTGEWGQGTQVTVSS	low polyreactivity
QVQLVESGGGLVQAGGSLRLSCAATGSTFAHNSMGWYRQAPGKESQFVAAISARGGMTYYADSVKGRFTISRDYAKNTVYLQMNSLKPEDTAVYYCAAVFGDYWSSQWSYAYGYWGQGTQVTVSS	high polyreactivity
QVQLVESGGGLVQAGGSLRLSCAATGSTFAVYSMGWYRQAPGKELELVATIRRNGGSTYYADSVKGRFTISRDNAKNTVYLQMNSLQPEDTAVYYCAARSRKRWGYNYWGQGTQVTVSA	high polyreactivity
QVQLVESGGGLVQAGGSLRLSCAATGSTFDDNVMGWYRQAHGKVRELVAAITTSGGSTFYADSVKWRFTISRDNAKNTVYLQMNSLKPEDTAVYYCNAVYFGLWGYYARRSYNYWGQGTQVTVSS	low polyreactivity
QVQLVESGGGLVQAGGSLRLSCAATGSTFLRNAIGWYRQAPGTERELVATITNGGSTYYADSVKGRFTISRDNAKNTVYLQMNSLKPEDTAVYYCATLSSYWSWLRYGYGYWGQGTQVTVSS	low polyreactivity
QVQLVESGGGLVQAGGSLRLSCAATGTTFHYYAMGWYRQAPGKERELVASITRSGGRTYYADSVKGRFTISRDNAKNTVYLQMNSLKPEDTAVYYCAARSYRRTSYDYPSNPNYEYYYWGQGTQVTVSS	high polyreactivity
QVQLVESGGGLVQAGGSLRLSCAATVSIFDRNAMGWYRQAPGKERELVAAISSVGSTNYADSVKGRFTISRDNAKNTVYLQMNSLKPEDTADYYCAAENEFIPSLFDYWGQGTQVTVSS	low polyreactivity
QVQLVESGGGLVQAGGSLRLSCAATVSTIKTYATMGLYRQAPWTERELVAAITSGSSTNYADSVKGRFTISRDNAKNTVYLQMNSMKPEDTAVYYCAADDYYNWYLGEPGDYWGQGTQVTVSS	low polyreactivity
QVQLVESGGGLVQAGGSLRLSCAAWSIFYLNAMGWNRQAPGKERELDAAISSAGSTYYADSVKGRFTISRDNAKNTFYLQMNSLKPEDTAVYYCAAYWYDSPGVTEIWYDYWGQGTQVTVSS	low polyreactivity
QVQLVESGGGLVQAGGSLRLSCAAYGFIFTRYAMGWSRQAPGKERELVAAISSSGGSTSYADSVKGRFTISRDNAKNTVYFQMNSLKPEDTAVYYCAARGYRLARYRSYDYWGQGTQVTVSS	high polyreactivity
QVQLVESGGGLVQAGGSLRLSCAAYGFTFKYYVMGWYRQAPGKERELVASISKRGGSTRYADSVKGRFTISRDNAKNTVYLQMNSLKPEDTAVYYCAAAFVRPPPYVGYSRFYYWGQGTQVTVSS	high polyreactivity

Sequence	polyreactivity (PSR sort gate)
QVQLVESGGGLVQAGGSLRLSCAAYGFTFVDFVMGWSIQAPGKERELVAAITTSGTRTSYADSVKGRFTISRDNAKNTVYLQLNSLKPEDTAVYYCNADHKSIYPKYRGRFYYWGQGTQVTVSS	high polyreactivity
QVQLVESGGGLVQAGGSLRLSCAAYGIIFRRNAMGWYRQAPGKERELVAAISWSGGTTYYADSVKGRFTISRDNAKYTVYLQIISLKPEDTAVYYCAAGLISRPYGYDYWGQCTQVTVSS	high polyreactivity
QVQLVESGGGLVQAGGSLRLSCAAYGIIFWINSMGRYRPAPGKEREVVAAITSGGTTYYADSVKGRFTISRDNGKNTVYLQMNILKPEDTAVYYCAARVRGARDYYWGQGTQVTVSS	high polyreactivity
QVQLVESGGGLVQAGGSLRLSCAAYGIIFYLYVMGWYRQAPGKERELVAVISYSGDDTYYADSVKGRFTISRDNAKNTVYLQMNSLKPEDTAVYYCAADYYYVYSSFGHYYWGQGTQVTVSS	low polyreactivity
QVQLVESGGGLVQAGGSLRLSCAAYGLIFPVYAMGWYRQAPGKEREFVASIWRGGTTYYADSVKGRFTISRDNAKNTVYLQMNRLKPEDTAVYYCAARYYPRGLVFPFTKYDYWGQGTQVTVSS	high polyreactivity
QVQLVESGGGLVQAGGSLRLSCAAYGLTFLSNAMGWYRPAPGKEREFVAAITKSGGRTYYADSVKGRFTISRDNAKNTVYFQMNSLKPEDTSVYYCAASGTSPRSTWYNSWGQGTQVTVSS	high polyreactivity
QVQLVESGGGLVQAGGSLRLSCAAYGNAMGWYRQAPGKERELVASINRSGGRTYYADSVKGRFTISRDNAKNTVYLQMNSLKPEDTAVYYCAARPHYDSDYWGQGTQVTVSS	low polyreactivity
QVQLVESGGGLVQAGGSLRLSCAAYGNTFEHYAKGWYRQAPVKERELVAAISNSGGSTYYADSVKGRFTLSRDNAKNTVYLQMNSLKPEDTAVYYCNARGRASATVRLGRPDPFGDWGQGTQVTVSS	high polyreactivity
QVQLVESGGGLVQAGGSLRLSCAAYGRIFIGYTMGWYRQAPGNERELVAVISYRGGRTYYADSVKGRFTISRDNAKNTVYLQMNSLKPEDTAVYYCAAYRPGVISGFDYWGQGTQVTVSS	high polyreactivity
QVQLVESGGGLVQAGGSLRLSCAAYGRIFNDYTMGWYRQAPGKERELVADITNRDTSTSYADSVKGRFIISRDNANNTVYLQMYILKPDDTAVYYCNAQQVIVVYRPGDYWGQGTQVTVSS	low polyreactivity
QVQLVESGGGLVQAGGSLRLSCAAYGRIFSAYVMGWYRQAPGKERELVAAISSTGSTYYADSAKGRFTISRDNAKNTVYLQMNSLKPEDTAVYYCAKRFFQQGYYYWGQGTQVTVSS	low polyreactivity
QVQLVESGGGLVQAGGSLRLSCAAYGRIFTSYVMGWYRQAPGKERELVAGINSGRRTNYADSVKGRFTISRDNAKNTVYLQMNSLKPEDTAVYYCAKAGYWYKAHYYWGQGTQVTVSS	high polyreactivity
QVQLVESGGGLVQAGGSLRLSCAAYGRIFYRNVMGWYRQAPGKERELVAAITYRTGSTYYADSVKGRFTISRDNAKNTVYLQMNSLKPEDTAVYYCNVVPRNGQTWGYEYDYWGQGTQVTVSS	high polyreactivity
QVQLVESGGGLVQAGGSLRLSCAAYGSIIGVNAMGWYRPAPGKERELVAAISSTGGSTYYADSVKGRFTISRDNAKNTVYLQMNSLKPEDTAVYYCNTDYSKSIGDGYAGFDYWGQGTQVTVSS	low polyreactivity
QVQLVESGGGLVQAGGSLRLSCAAYGSIISYTMGWYRQAPGKERELVAAITSGRITYYADSVKGRFTISRDNAKNTVSLQMNRLKQEDTAVYYCNNDVGFTRPLYYWGQGTQVTVSS	low polyreactivity
QVQLVESGGGLVQAGGSLRLSCAAYGSILLRYAMGWYRQAPGKERELVAAIRTIGASTYYADSVKGRFTISRDNAKNTVYLQMNSLKPEDTAVYYCNGYLAEVLQLGKCRLYDYWGQSTQVTVSS	low polyreactivity
QVQLVESGGGLVQAGGSLRLSCAAYGSILRTYAMGWYRQAPGKERELVAAISSSGGSTYYADSVKGRFTISRDNAKNTVYLQMNSLKPEDTAVYYCAARYRYYYTRYDYWGQGTQVTVSS	high polyreactivity
QVQLVESGGGLVQAGGSLRLSCAAYGSLFDSNAMGWYRQAPRKERELVAAITVSGTSTYYADSVNGRFTISRDNEKNTVYLQMNSLKPEYTEVYYCAAAQEYLTDHDYWGQGTQVTVSS	low polyreactivity
QVQLVESGGGLVQAGGSLRLSCAAYGSNFVFNAMGWYRQAPGKERELVAAISNGDGTNYADSVKGRFTISRDNAKNTVYFQINSLKPEDTAVYYCAAVWTTQIVIEYDYWGQGSQVTVSS	low polyreactivity
QVQLVESGGGLVQAGGSLRLSCAAYGSSFNHYSMGWYRQAPGKERELVAAISWNGGSTYYADSVKGRFTISRDNAKNTVYLQMNSLKPEDTAVYYCNALVTTTPRYDYWGQGTQVTVSS	high polyreactivity
QVQLVESGGGLVQAGGSLRLSCAAYGSTFASYSMGWYRQAPGKERELVADISKSGTRTYYADSVKGRFTISRDNAKNTVYLQMNSLKPEDTAVYYCATGQYLRTSRFYYWGHGTQVTVSS	high polyreactivity
